assay: yeast display, Sf9 membrane polyspecificity reagent, FACS + sequencing; frameworks hold sequencing errors
Method in brief: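 Nanobodies from a synthetic yeast display library (Saccharomyces cerevisiae BJ5465), induced 36–48 hours with galactose, were stained 1 hour at 4 °C with 10% biotinylated, detergent-solubilized Sf9 membrane reagent, enriched on streptavidin microbeads, then FACS-sorted. Anti-HA (expression) and streptavidin (reagent binding) fluorescence set low and high (top ~1%) gates. Polyreactivity labels come from the gate of origin. Genes were colony-PCR amplified, MiSeq 2 × 250 sequenced and filtered by CDR length.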

| Sequence | polyreactivity (PSR sort gate) |
| --- | --- |
| QVQHVESGGGLVQAGGSLRLSCAASGSTFRTYGMGWYRQAPGKERELVAGITRGGSTTYADSVKGRFTISRDNAKNTVYLQMNSLKPEDTAVYYCNAGYVRVRAHNYDYWGQGTQVTVSS | high polyreactivity |
| QVQHVESGGGLVQAGGSLRLSCAASGSTFSQYGMGWYRQAPGKEREFVAGISGSGGRTYYADSVKGRFTSSRDNAKNTVYLQMNSLKPEDTAVYYCAAETVYKWWYDYYYWGQGTQVTVSS | high polyreactivity |
| QVQHVESGGGLVQAGGSLRLSCAASGSTFSYKVMGWYRQAPGKERELVAAISQSGGSTYYADSVKGRFTISRDNAKNTVYLHMNSLKPEDTAVYYCAAERRYYYGWGSFDYWGQGTQVTVSS | low polyreactivity |
| QVQHVESGGGLVQAGGSLRLSCAASGSTIRYYTMGWYRQPPGKERELVAAITYSGGSTYYADSVKGRFTISRDNAKNTVYLQKNSLKPEDTAVYYCAKRWSQPKYDYWGQGTQVTVSS | high polyreactivity |
| QVQHVESGGGLVQAGGSLRLSCAASGSTIYWYAMGWYRQAPGKERELVAAISLSGGSTYYADSVKGRFTISRDNAKNTVYLQMNSLKPEDTAVYYCAARTSYYVYRHPSGRYDYWGQGTQVSVSS | low polyreactivity |
| QVQHVESGGGLVQAGGSLRLSCAASGSTSPGYAMGWSRQAPGKERELVAAITFRGTRTYYADSVKGRFTISRDNAKNTVYLQMNSQKPEDTAVYYCNVVGYGPNRGRVDYWGQGTQVTVSS | high polyreactivity |
| QVQHVESGGGLVQAGGSLRLSCAASGYISVGYAMGWSRQAPGKERELVAAITESGGSTYYADSVKGRFTISRDNAKNTVYLQMNSLKPEDTAVYYCAADVIYEDRMDYWGQGTQVTVSS | low polyreactivity |
| QVQHVESGGGLVQAGGSLRLSCAAYGFTFVRYAKGWYRQAPGKEREFVASISARGGNTFYADSVKGRFTISRDNAKNTVFLQMNSLKPEDTAVYYCAKRGPYGTGYGYWGQGTQVTVSS | high polyreactivity |
| QVQHVESGGGLVQAGGSLRLSCAAYYAMGWYRQAPGKERELVAAISSTGRTNYADSVKGRFTISRDNAKNTVYLQMNSLKPEDTAVYYCNAGDPSGMDYWGQGTQVTVSS | low polyreactivity |
| QVQHVESGGGLVQAGGSLRLSCASSGSTFWAYAMGWYRLAPGKERELVATITGSVGGTYYADSVKGRFTISRDNAKNTVYLQMNSLKPEDTAVYYCATDAYVKGVYEISEDRVDYWGQGTQVTVSS | low polyreactivity |
| QVQHVESGGGLVQAGGSLRLSCDASGLTISWYAMGWYRQAPGKEREMVAAISKRGGSTYYADSVKGRFTISRDNAKNTVYLQMNSLKPEDTAVYYCNARSPYTGWTLDYWGQGTQVTVSS | high polyreactivity |
| QVQHVESGGGLVQAGGSLRLSCDASGRIFAWYAMGWYRHAPGKERELVASISSGGRTNYADSVKGRFTISRDIAKNTVYLQMNSLKPVDTAVYYCNVAIVWPWYGRWFQEYDYWGQGTQVTVSS | low polyreactivity |
| QVQHVESGGGLVQAGGSLRLSCPASGSIIYYNTMGWYRQAPGKERELVAGISWGGGRTYYADSVKGRFTISRDNAKNTVYLQMNSLKPEDTAVYYCNAVSKYDYGYWGQGTQVTVSS | high polyreactivity |
| QVQHVESGGGLVQAGGSLRLSSAASGRIFSWNAMVWYRQAPGKERELVAAITNGGGTYYADSVKGRFTISRDNAKNTVYLQMNSLKPEDTAVYYCNAYRRKLWYPTGMYWGQGTQVTVSS | high polyreactivity |
| QVQHVESGGGLVQAGGSLRLSSAASGSIFSYNAMGWYRQSPGKERELVAAIRASGGDTYYADSVKGRFTISRDNAKNTVYLQMNSLKPEDTAVYYCAARTYSHHYASHGYWGQGTQVTVSS | low polyreactivity |
| QVQHVESGGGLVQAGGSLRLTCAATGSTFRDNAMRWYRQAPGKERELVAAIRIGGDGTYYADSVKGRFTISRDNAKNTVYLQMNSLKPEDTAVYYCAVDTEKGWRMYYWGQGTQVTVSS | low polyreactivity |
| QVQHVESGGGLVQAGGSLRVSCAASGFIFSAYAMGRYRKATGKERELVAAISSGGSTYYADSVKGRFTISRDNAKNTVYLQMNSLKPEDTEVYYCAAVYTGRYRYDYWGQGTHVTVSS | low polyreactivity |
| QVQHVESGGGLVQAGGSLSLRCAASGSTLPYYAMGGYRPAPGKEREFVAAISSSGGSTYYADSVKGRFTISRDNAKYTVYLQMNSLKPEDTAVYYCNAVLYARQRDRWARYDYWGQGTQVTVSS | high polyreactivity |
| QVQHVESGGGLVQAGSLRLSCAASGSTFPYNAMGWYREAPGKERELVATISWSGGSTYYADSVKGRFTISRDNAKNTVYLQMNSLKPEDTAVYYCNATYGSSYDYWGQGTQVTVSS | low polyreactivity |
| QVQHVESGGGLVQAVGSLRLSFAASGSIFRGYAMGGYRPAPGKERELVAAIRYSGARTYYADSVKGRFTISRDNAKNTVYLQMNSLKPEDTAVYYCNARSYSRTHYDYWGQGTQVTVSS | high polyreactivity |
| QVQHVESGGGLVQEGGSLRLSCAASGITFGRNTMGWYRQAPGKERELVAAIDSGGNTYADSVKGRFTISRDNAKNTVYLQMNSLKPVDTAVYSCAVDGGEFSSYGYWGQGTQVTVSS | low polyreactivity |
| QVQHVESGGGLVQPGGSLRLSCAASGYTFYANAMGWYRQAPGKEREFVASITWSGGSSYYADSVKGRFTISRDNAKNTVYLHLNSLKPEDTAVYYCAAESWFKYDYWGQGTQVTLSS | low polyreactivity |

| Sequence | polyreactivity (PSR sort gate) |
| --- | --- |
| QVQHVESGGGVVQAGRSLRLRCDASGFILWYYTMGWYRPAPGKERELVAAISRGGTTYYADSVKGRFTISRDNAKKSVYLQMTSLKPEDTAVYYCNAPDNTHGIVLYDYWGQGTQVTVSS | low polyreactivity |
| QVQHVESGGRLVQAGGSLRLSCAASGRTFPQYAMGWYRQAPGKERELVAAITSGDSTNYSDSVKGRFTISRDNAKNTVYLQMNSLKPEDTAVYYCAAVYYYSKWYTPYEDVYWGQGTQVTVSS | low polyreactivity |
| QVQHVESGRGLVQAGGILRLSCAASGRIFRMNAMGWYRQATGKERELDAAITWIGGRTYYADSVKGRFTISRDNAKNTVYLQMNSLKPEDTAVYYCAAAYPLDFWFGFEYDYWGQGTQGTVSS | high polyreactivity |
| QVQHVESGRGLVQAGGSLRLICAASGRTFGRNAMGWYRQAPGQERELVAAITSGGSTSYADSVKGRFTISRDNAKNPVYLQMNSLKPEDTAVYYCRQFSVWGYDYWGQGTQLTVSS | high polyreactivity |
| QVQHVESGRGLVQAGGSLRLSCAASGITFRYYAMGWYRQAPGKERELVAAISRGTSTKYADSVKGRFTISRDNAKNTVYLQMNSQKPEDTAVYYCAVYGYWSKSDYWGQGTQVTVSS | low polyreactivity |
| QVQHVESGRGLVQAGGSLRLSCAASGSIFSSYARGWSREAPGKERELVAAISQSGGDTYYADSVKGRFTISRDNAKNTVYLQMKSLKPEDTAVYYCAASVWYYPMDYWGQGTQVTVSS | low polyreactivity |
| QVQHVESGRGLVQAGGSLRLSCAGSGFIFYKYAMGWYRQAPGKERELVAAITRGGSTNYADSVKGRFTISRDTAKNTVFLQMNSLKPEDTAVYYCAAGNRYGVRQLYQIVTRYYWGQGTQVTVSS | high polyreactivity |
| QVQHVESGVGLDQAGGSLRLSCAASGSIFYWNAMGWYRQAPGKEREFVATITITTSTNYADSVKGRFTISRDNAKNPVNLQMNSLKPEDTAVYYCNAGAPYRYLDEYNYWGQGTKVTVSS | low polyreactivity |
| QVQHVESGVGLVQAGGSLRLSCAASGFIFTINAMGWYRQAPGKERELVAAISWSGGRTYYADSVKGRFTISRDNAKNTVYLQMNSLNPEDTAVYYCNAYPATQYDYESWGQGTQGTVSS | high polyreactivity |
| QVQHVESGVGLVQAGGSLRLSCAASGRIFVFYTMGWYIQAPGKERELVARISSGGSKNYADSVKGRFTISRDNAKNTVYLQMNSLKPEDTAVYYCNAAYARGRAGYYYWGQGTQVTVSS | high polyreactivity |
| QVQHVESRGGLVQAGGSLRLSCAASGSTFDGNAMGWYRQAPGTETELVAGISYRGGSTYYADSVKGRFTISRDYAKNSVYLQMNRLKPEDTAVYYCAADDYVYWLFDYWGQGTQVTVSS | low polyreactivity |
| QVQHVESVGGLVQAGGSLRLSCAASVSTFYFYAMGWYRQAPGKERELVAVISSGGRTYYADSVKGRFTISRDKAKNTVYLQMNSLKPEDTAVYYCAASWPSSLTYYYWGQGTQVTVSS | low polyreactivity |
| QVQHVESVGRLVQAGGSLRLSCAASGFTFKYYAMGWYRQAPGKERELVAVISSSGGSTYYADSVKGRFTISRDNAKNTVYLQMNSLKPEDTAVYYCAAELVYRYFVKDADDYWGQGTQVTVSS | low polyreactivity |
| QVQHVETGGGLVQAGGSHRLSCAASGLIFDYNAMGWYTQAPRKERELDADISSGGSTYYADSVKGRFTISSDNGKNSVYLQMNSLKTEDTAVYYCATRRQAQYTRYYGSRQFYYWGQGTQVTVSS | high polyreactivity |
| QVQHVETGGGLVQAGGSLRLSCAASGLAFAMGWYSQAPGTERELVASITGSGDSTYYADSVKGRFTISRDNAKNTVYLQMNSQKPEDTAVYYCGARTYYNYAPRYYYWGQGTQVTVSS | low polyreactivity |
| QVQHVQSGGGLVQAGGSLRLSCAASGYIFWSYEIGGYRQAPGKERELDATITSGDSTYYADSVKGRFTISRDNAKNTVYLQMKSLKPEDTALDYCAACTYYRLTYWLREYDYSGQGTQVTVSS | low polyreactivity |
| QVQIEESGGGLVQAGGSLRLSCAASGRTFNFYAMGWYRQATGKERELVAAISHGDSTYYADSVKGRFTISRDNAKNTVYLQMNSLKPEDTAVYYCAASQKYYLRKYEYWGQGTQVTVSS | low polyreactivity |
| QVQIEESGGGLVQAGRSHRLSCAASGSTFGSYAMRWYRQAPGKERELVAAISASGGSTYYADSVKGRFTISRDNAKHTVYLQMNSLKPEDTAVFYCATVYYSARYNYWGQGTQVTVSS | high polyreactivity |
| QVQIGESGGGLVQAGGSLRLSCAASGSTFWRYAMGWDRPATGKECELVASITGGGGSTYYADSVKGRFTISRDNAKNTVDLQMHRLKPEDNAVYSCNARRYYRVDSYDYWGQGTQVTVSS | high polyreactivity |
| QVQILESGGGLVQAGGSLRLSCAASGFTFTGYALGWYSQAPGKERELVAAINARATSTYYADSVKGRFTISRDNAMNHVYLQIKSLIPEDTAVYFCAATFYRRYVDLGYWGQCTQVTVSS | high polyreactivity |
| QVQIVDSGGGLVQAGGSLRLSCAASGSTFIPNDMGWYRQAPGKERELVAAITVSGDDTYYADSVKGRFTISRDNAKNTVYIQMNSLKPDDTAVYYCNVDDPFYSGVVVFDYWGQGTLVTVSS | low polyreactivity |

Source: the nanobody polyreactivity screen of Harvey et al. (2022)
